Reference: patent US20250340631A1 (HARBOUR BIOMED SHANGHAI, published 2025)

How the values were obtained:
human CLDN18.1 = target: T1, human CLDN18.1 (human, UniProt P56856 1-261); assay: FACS on HEK293/hCLDN18.1 cells
T1 construct: whole, on cells; also called hCLDN18.1
Description: (§1) Antibodies were assayed for binding affinity by FACS. Test cells include HEK293/hCLDN18.2, HEK293/hCLDN18.1, NUGC4_D8 and Jurkat cells. […] The cell density was adjusted to 10⁶ cells/mL, and 50 μL of the cell suspension was added to each well of a 96-well plate. Antibodies were diluted to different concentrations with FACS buffer, and 50 μL of the antibody dilution was added to each well of the 96-well plate. After 2 h of incubation at 4° C., the plate was washed twice with FACS buffer. […] After 1 h of incubation at 4° C., the plate was washed twice with FACS buffer. The cells were resuspended in fixative solution, and then the fluorescence of the cells was monitored using an FACS instrument (ACEA NovoCyte).

human CLDN18.2 [1] = target: T2, human CLDN18.2 (human); assay: FACS on NUGC4_D8 cells
T2 construct: the HEK293 line was made with a GenScript plasmid; also called hCLDN18.2
Description: as §1

human CLDN18.2 [2] = target: T2, human CLDN18.2; assay: cell-based or functional assay
[3] = target: T3, human CD3 on Jurkat cells (human, UniProt P07766 23-207); assay: FACS on Jurkat cells (CD3)
T3 construct: whole, on cells; on cells it stands in the whole CD3/TCR complex; also called CD3-expressing cells
Description: as §1

[4] = target: T3, human CD3 on Jurkat cells; assay: FACS on Jurkat cells
Description: as §1

[5] = target: CLDN18.2 of SNU620 cells (methionine to leucine at amino acid 149) (human, UniProt P56856-2 1-261); assay: cell-based or functional assay
human CLDN18.2 [6] = target: T2, human CLDN18.2; assay: FACS on HEK293/hCLDN18.2 cells
Description: as §1

T1 sequence (P56856 whole entry): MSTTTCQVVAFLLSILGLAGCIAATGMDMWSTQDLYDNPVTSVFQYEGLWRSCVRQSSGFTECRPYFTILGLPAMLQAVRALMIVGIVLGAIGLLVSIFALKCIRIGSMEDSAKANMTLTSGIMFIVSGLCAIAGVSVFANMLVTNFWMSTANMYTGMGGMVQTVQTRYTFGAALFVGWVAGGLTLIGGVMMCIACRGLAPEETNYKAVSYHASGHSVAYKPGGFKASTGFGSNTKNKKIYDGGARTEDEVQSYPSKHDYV
T3 sequence (P07766 23-207): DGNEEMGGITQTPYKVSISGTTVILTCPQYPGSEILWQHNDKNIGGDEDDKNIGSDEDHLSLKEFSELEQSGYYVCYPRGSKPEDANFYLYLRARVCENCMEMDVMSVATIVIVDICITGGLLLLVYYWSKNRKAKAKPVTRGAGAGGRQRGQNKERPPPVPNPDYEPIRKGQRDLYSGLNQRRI
Sequence of CLDN18.2 of SNU620 cells (methionine to leucine at amino acid 149) (P56856 other isoform, or with tags, fused parts or gaps limits assumed): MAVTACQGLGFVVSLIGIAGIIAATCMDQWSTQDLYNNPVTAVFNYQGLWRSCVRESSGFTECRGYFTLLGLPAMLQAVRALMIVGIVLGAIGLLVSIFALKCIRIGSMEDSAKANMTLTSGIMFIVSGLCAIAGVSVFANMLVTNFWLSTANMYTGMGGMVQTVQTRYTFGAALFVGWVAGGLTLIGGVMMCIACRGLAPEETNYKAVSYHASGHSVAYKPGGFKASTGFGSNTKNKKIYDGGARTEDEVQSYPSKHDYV

Row | binding result (human CLDN18.1) | EC50 (human CLDN18.2 [1]) | TDCC, Titer EC50 (pM), NUGC4_D8 (human CLDN18.2 [2]) | binding result [3] | EC50 [4] | TDCC, Titer EC50 (pM), SNU620 [5] | EC50 (human CLDN18.2 [6]) | Binder
1 | no binding | 0.0205 µM | 30.6 pM | binds | – | – | – | PR005518 (bispecific antibody, structure 2 (2+1 HCAb-Fc-Fab, CD3 VH-CH1 at the C-terminus of one HCAb chain); PR001848 / PR004533; LALA) chain 1: EVQLVESGGGLVQPGGSLRLSCAASGFTFSSYWMHWVRQVPGKGLVWVSRINSDGSRTIYADSVKGRFTISRDNAKNTLYLQMNSLRAEDTAVYYCARGEDHDILTGYPIRGQGTTVTVSSASEPKSSDKTHTCPPCPAPEAAGGPSVFLFPPKPKDTLMISRTPEVTCVVVDVSHEDPEVKFNWYVDGVEVHNAKTKPREEQYNSTYRVVSVLTVLHQDWLNGKEYKCKVSNKALPAPIEKTISKAKGQPREPQVCTLPPSREEMTKNQVSLSCAVKGFYPSDIAVEWESNGQPENNYKTTPPVLDSDGSFFLVSKLTVDKSRWQQGNVFSCSVMHEALHNHYTQKSLSLSPGK chain 2: not shown light: QAVVTQEPSLTVSPGGTVTLTCRSSTGAVTTSNYANWVQQKPGQAPRGLIGGTNKRAPWTPARFSGSLLGDKAALTLLGAQPEDEAEYFCALWYSNLWVFGGGTKLTVLGQPKAAPSVTLFPPSSEELQANKATLVCLISDFYPGAVTVAWKADSSPVKAGVETTTPSKQSNNKYAASSYLSLTPEQWKSHRSYSCQVTHEGSTVEKTVAPTECS
2 | no binding | 0.0139 µM | 186 pM | binds | – | – | – | PR005522 (bispecific antibody, human IgG1, lambda, L234A L235A, PR001848 / PR004533; LALA) EVQLVESGGGLVQPGGSLRLSCAASGFTFSSYWMHWVRQVPGKGLVWVSRINSDGSRTIYADSVKGRFTISRDNAKNTLYLQMNSLRAEDTAVYYCARGEDHDILTGYPIRGQGTTVTVSSGGGGSGGGGSGGGGSEVQLVESGGGLVQPGGSLRLSCAASGFTFSSYWMHWVRQVPGKGLVWVSRINSDGSRTIYADSVKGRFTISRDNAKNTLYLQMNSLRAEDTAVYYCARGEDHDILTGYPIRGQGTTVTVSSASEPKSSDKTHTCPPCPAPEAAGGPSVFLFPPKPKDTLMISRTPEVTCVVVDVSHEDPEVKFNWYVDGVEVHNAKTKPREEQYNSTYRVVSVLTVLHQDWLNGKEYKCKVSNKALPAPIEKTISKAKGQPREPQVCTLPPSREEMTKNQVSLSCAVKGFYPSDIAVEWESNGQPENNYKTTPPVLDSDGSFFLVSKLTVDKSRWQQGNVFSCSVMHEALHNHYTQKSLSLSPGK heavy: not shown light: QAVVTQEPSLTVSPGGTVTLTCRSSTGAVTTSNYANWVQQKPGQAPRGLIGGTNKRAPWTPARFSGSLLGDKAALTLLGAQPEDEAEYFCALWYSNLWVFGGGTKLTVLGQPKAAPSVTLFPPSSEELQANKATLVCLISDFYPGAVTVAWKADSSPVKAGVETTTPSKQSNNKYAASSYLSLTPEQWKSHRSYSCQVTHEGSTVEKTVAPTECS
3 | no binding | 0.0126 µM | 28.9 pM | – | 0.0268 µM | – | – | PR005525 (bispecific antibody, human IgG1, lambda, L234A L235A, structure 7 (3+1 Fab-Fc-VH-VH-VH); PR003886 / PR004533; LALA) EVQLVESGGGLVQPGGSLRLSCAASGFTFSSYWMHWVRQVPGKGLVWVSRINSDGSRTIYADSVKGRFTISRDNAKNTLYLQMNSLRAEDTAVYYCARGEDHDILTGYPIRGQGTTVTVSSGGGGSGGGGSGGGGSEVQLVESGGGLVQPGGSLRLSCAASGFTFSSYWMHWVRQVPGKGLVWVSRINSDGSRTIYADSVKGRFTISRDNAKNTLYLQMNSLRAEDTAVYYCARGEDHDILTGYPIRGQGTTVTVSSGGGGSGGGGSGGGGSEVQLVESGGGLVQPGGSLRLSCAASGFTFSSYWMHWVRQVPGKGLVWVSRINSDGSRTIYADSVKGRFTISRDNAKNTLYLQMNSLRAEDTAVYYCARGEDHDILTGYPIRGQGTTVTVSSASEPKSSDKTHTCPPCPAPEAAGGPSVFLFPPKPKDTLMISRTPEVTCVVVDVSHEDPEVKFNWYVDGVEVHNAKTKPREEQYNSTYRVVSVLTVLHQDWLNGKEYKCKVSNKALPAPIEKTISKAKGQPREPQVCTLPPSREEMTKNQVSLSCAVKGFYPSDIAVEWESNGQPENNYKTTPPVLDSDGSFFLVSKLTVDKSRWQQGNVFSCSVMHEALHNHYTQKSLSLSPGK heavy: not shown light: QAVVTQEPSLTVSPGGTVTLTCRSSTGAVTTSNYANWVQQKPGQAPRGLIGGTNKRAPWTPARFSGSLLGDKAALTLLGAQPEDEAEYFCALWYSNLWVFGGGTKLTVLGQPKAAPSVTLFPPSSEELQANKATLVCLISDFYPGAVTVAWKADSSPVKAGVETTTPSKQSNNKYAASSYLSLTPEQWKSHRSYSCQVTHEGSTVEKTVAPTECS
4 | no binding | 0.0139 µM | 32.9 pM | binds | – | 70.5 pM | – | PR005519 (bispecific antibody, structure 3 (2+1 HCAb-Fc-Fab, CD3 VL-CL at the C-terminus of one HCAb chain; third chain is CD3 VH-CH1); PR001848 / PR004533; LALA) chain 1: EVQLVESGGGLVQPGGSLRLSCAASGFTFSSYWMHWVRQVPGKGLVWVSRINSDGSRTIYADSVKGRFTISRDNAKNTLYLQMNSLRAEDTAVYYCARGEDHDILTGYPIRGQGTTVTVSSASEPKSSDKTHTCPPCPAPEAAGGPSVFLFPPKPKDTLMISRTPEVTCVVVDVSHEDPEVKFNWYVDGVEVHNAKTKPREEQYNSTYRVVSVLTVLHQDWLNGKEYKCKVSNKALPAPIEKTISKAKGQPREPQVCTLPPSREEMTKNQVSLSCAVKGFYPSDIAVEWESNGQPENNYKTTPPVLDSDGSFFLVSKLTVDKSRWQQGNVFSCSVMHEALHNHYTQKSLSLSPGK chain 2: not shown chain 3: EVQLLESGGGLVQPGGSLRLSCAASGFTFSTYAMNWVRQAPGKGLEWVSRIRSKYNNYATYYADSVKDRFTISRDDSKSTLYLQMNSLRAEDTAVYYCVRHGNFGNSYVSWFAYWGQGTLVTVSSASTKGPSVFPLAPSSKSTSGGTAALGCLVKDYFPEPVTVSWNSGALTSGVHTFPAVLQSSGLYSLSSVVTVPSSSLGTQTYICNVNHKPSNTKVDKKVEPKSC
5 | no binding | 0.0126 µM | 11 pM | binds | – | – | – | PR005354 (bispecific antibody, human IgG1, lambda, L234A L235A, structure 1; CD3 Fab from PR001848, CLDN18.2 VH from PR004533; LALA) EVQLVESGGGLVQPGGSLRLSCAASGFTFSSYWMHWVRQVPGKGLVWVSRINSDGSRTIYADSVKGRFTISRDNAKNTLYLQMNSLRAEDTAVYYCARGEDHDILTGYPIRGQGTTVTVSSGGGGSGGGGSGGGGSEVQLVESGGGLVQPGGSLRLSCAASGFTFSSYWMHWVRQVPGKGLVWVSRINSDGSRTIYADSVKGRFTISRDNAKNTLYLQMNSLRAEDTAVYYCARGEDHDILTGYPIRGQGTTVTVSSASEPKSSDKTHTCPPCPAPEAAGGPSVFLFPPKPKDTLMISRTPEVTCVVVDVSHEDPEVKFNWYVDGVEVHNAKTKPREEQYNSTYRVVSVLTVLHQDWLNGKEYKCKVSNKALPAPIEKTISKAKGQPREPQVCTLPPSREEMTKNQVSLSCAVKGFYPSDIAVEWESNGQPENNYKTTPPVLDSDGSFFLVSKLTVDKSRWQQGNVFSCSVMHEALHNHYTQKSLSLSPGK heavy: not shown light: QAVVTQEPSLTVSPGGTVTLTCRSSTGAVTTSNYANWVQQKPGQAPRGLIGGTNKRAPWTPARFSGSLLGDKAALTLLGAQPEDEAEYFCALWYSNLWVFGGGTKLTVLGQPKAAPSVTLFPPSSEELQANKATLVCLISDFYPGAVTVAWKADSSPVKAGVETTTPSKQSNNKYAASSYLSLTPEQWKSHRSYSCQVTHEGSTVEKTVAPTECS
6 | – | – | 14.8 pM | – | 0.0819 µM | 41.1 pM | 0.0253 µM | PR005399 (bispecific antibody, human IgG1, lambda, L234A L235A, structure 1; CD3 Fab from PR003886, CLDN18.2 VH from PR007243; LALA) EVQLVESGGGLVQPGGSLRLSCAASGFTFSSYWMHWVRQVPGKGLVWVSRISSAGSRTIYADSVKGRFTISRDNAKNTLYLQMNSLRAEDTAVYYCARGEDHDILTGYPIRGQGTTVTVSSGGGGSGGGGSGGGGSEVQLVESGGGLVQPGGSLRLSCAASGFTFSSYWMHWVRQVPGKGLVWVSRISSAGSRTIYADSVKGRFTISRDNAKNTLYLQMNSLRAEDTAVYYCARGEDHDILTGYPIRGQGTTVTVSSASEPKSSDKTHTCPPCPAPEAAGGPSVFLFPPKPKDTLMISRTPEVTCVVVDVSHEDPEVKFNWYVDGVEVHNAKTKPREEQYNSTYRVVSVLTVLHQDWLNGKEYKCKVSNKALPAPIEKTISKAKGQPREPQVCTLPPSREEMTKNQVSLSCAVKGFYPSDIAVEWESNGQPENNYKTTPPVLDSDGSFFLVSKLTVDKSRWQQGNVFSCSVMHEALHNHYTQKSLSLSPGK heavy: not shown light: QAVVTQEPSLTVSPGGTVTLTCRSSTGAVTTSNYANWVQQKPGQAPRGLIGGTNKRAPWTPARFSGSLLGDKAALTLLGAQPEDEAEYFCALWYSNLWVFGGGTKLTVLGQPKAAPSVTLFPPSSEELQANKATLVCLISDFYPGAVTVAWKADSSPVKAGVETTTPSKQSNNKYAASSYLSLTPEQWKSHRSYSCQVTHEGSTVEKTVAPTECS
7 | – | 0.0442 µM | – | – | 0.041 µM | – | – | PR007082 (bispecific antibody, human IgG1, lambda, structure 1; CD3 Fab from PR003886, CLDN18.2 VH from PR007248; AAA) EVQLVESGGGLVQPGGSLRLSCAASGFTFSSYWMHWVRQVPGKGLVWVSRINHDSSRTIYADSVKGRFTISRDNAKNTLYLQMNSLRAEDTAVYYCARGEDHDILTGYPIRGQGTTVTVSSGGGGSGGGGSGGGGSEVQLVESGGGLVQPGGSLRLSCAASGFTFSSYWMHWVRQVPGKGLVWVSRINHDSSRTIYADSVKGRFTISRDNAKNTLYLQMNSLRAEDTAVYYCARGEDHDILTGYPIRGQGTTVTVSSASEPKSSDKTHTCPPCPAPEAAGAPSVFLFPPKPKDTLMISRTPEVTCVVVDVSHEDPEVKFNWYVDGVEVHNAKTKPREEQYNSTYRVVSVLTVLHQDWLNGKEYKCKVSNKALPAPIEKTISKAKGQPREPQVCTLPPSREEMTKNQVSLSCAVKGFYPSDIAVEWESNGQPENNYKTTPPVLDSDGSFFLVSKLTVDKSRWQQGNVFSCSVMHEALHNHYTQKSLSLSPGK heavy: EVQLVESGGGLVQPGGSLKLSCAASGFTFSTYAMNWVRQASGKGLEWVGRIRSKYNNYATYYADSVKDRFTISRDDSKNTAYLQMNSLKTEDTAVYYCTRHGNFGNSYVSWFAYWGQGTLVTVSSASTKGPSVFPLAPSSKSTSGGTAALGCLVKDYFPEPVTVSWNSGALTSGVHTFPAVLQSSGLYSLSSVVTVPSSSLGTQTYICNVNHKPSNTKVDKKVEPKSCDKTHTCPPCPAPEAAGAPSVFLFPPKPKDTLMISRTPEVTCVVVDVSHEDPEVKFNWYVDGVEVHNAKTKPREEQYNSTYRVVSVLTVLHQDWLNGKEYKCKVSNKALPAPIEKTISKAKGQPREPQVYTLPPCREEMTKNQVSLWCLVKGFYPSDIAVEWESNGQPENNYKTTPPVLDSDGSFFLYSKLTVDKSRWQQGNVFSCSVMHEALHNHYTQKSLSLSPGK light: QAVVTQEPSLTVSPGGTVTLTCRSSTGAVTTSNYANWVQQKPGQAPRGLIGGTNKRAPWTPARFSGSLLGDKAALTLLGAQPEDEAEYFCALWYSNLWVFGGGTKLTVLGQPKAAPSVTLFPPSSEELQANKATLVCLISDFYPGAVTVAWKADSSPVKAGVETTTPSKQSNNKYAASSYLSLTPEQWKSHRSYSCQVTHEGSTVEKTVAPTECS
